Data: US20110207132

Tested on: BfuCI restriction endonuclease
Test: cleavage_in_vitro
Details: for binding signal (signal/no-template): after 25 min
[1] = phosphorothioate 5' of GATC in probe B, JP3 cleaved greater than four times faster
[2] = phosphorothioate 5' of GATC in probe B

## AGAGTCCACCAAGCTTCAGATTAG / TCTGAAGCTTTGATC / AAAAGATCAAATTGGTGGACTCTAAAA [JP3]
Phosphorothioate 5' of GATC in probe B, average rate first 5 min, 7-fold signal enhancement over JP2
  activity: 0.9 nM/min

## AGAGTCCACCAAGCTTCAGATTAG / TCTGAAGCTTTGATC / TTTTGATCAAATTGGTGGACTCTAAAA [JP9]
[1]
  binding signal: < 0.25 fold vs JP3

## AGAGTCCACCAAGCTTCAGATTAG / TCTGAAGCTTTGATC / TGGATCGGAAAACCGATCCAGATCATATTGGTGGACTCT [JP18]
Phosphorothioate 5' of each GATC in probe B, initial rate, NEBuffer 4, 10 mM Mg, 30 C
  activity: 82 nM/min

## AGAGTCCACCAAGCTTCAGATTAG / TCTGAAGCTTTGATC / AAAAGATCAAATTGGTGGACTCTAAAA [JP4]
Phosphorodithioate 5' of GATC in probe B, fluorescence enhancement
  binding signal: 3 fold vs JP2

## AGAGTCCACCAAGCTTCAGATTAG / TCTGAAGCTTTGATC / AAAAGATCAAATTGGTGGACTCTAAAA [T1/A/B junction probe (JP2)]
NEBuffer 4, 10 mM Mg, 30 C, 5 h
  binding signal (fold vs no template): 60

## AGAGTCCACCAAGCTTCAGATTAG / TCTGAAGCTTTGATC / AGTAACGGAAAACCGTTACTAAAAGATCAATTTGGTGGACTCT [JP13]
[2]
  binding signal (signal/no-template): 13.5

## AGAGTCCACCAAGCTTCAGATTAG / TCTGAAGCTTTGATC / CCCCGATCAAATTGGTGGACTCTAAAA [JP8]
[1]
  binding signal: < 0.25 fold vs JP3

## AGAGTCCACCAAGCTTCAGATTAG / TCTGAAGCTTTGATC / AGTAACGGAAAACCGTTACTAAAAGATCATATTGGTGGACTCT [JP14]
[2]
  binding signal (signal/no-template): 9

## AGAGTCCACCAAGCTTCAGATTAG / TCTGAAGCTTTGATC / AGTAACGGAAAACCGTTACTAAAAGATCAAATTGGTGGACTCT [JP10]
[2]
  binding signal (signal/no-template): 4.7

## AGAGTCCACCAAGCTTCAGATTAG / TCTGAAGCTTTGATC / GGGGGATCAAATTGGTGGACTCTAAAA [JP7]
[1]
  binding signal: < 0.25 fold vs JP3

## AGAGTCCACCAAGCTTCAGATTAG / TCTGAAGCTTTGATC / TGTAACGGAAAACCGTTACAGATCATATTGGTGGACTCT [JP16]
Phosphorothioate 5' of GATC in probe B, initial rate, 30 C
  activity: 43 nM/min

## AGAGTCCACCAAGCTTCAGATTAG / TCTGAAGCTTTGATC / TGTAACGGAAAACCGTTACAGATCAAATTGGTGGACTCT [JP12]
Phosphorothioate 5' of GATC in probe B, average rate first 5 min, 30 C
  activity: 39 nM/min
